From patent US12551596B2, “Delivery systems for administration of cationic biological actives” (Allvivo Vascular, Inc., priority 2017, dated 2026)

Assay: Stability of ASP-1 in PU 077 catheter coating after EO sterilization and storage, HPLC
Format: physicochemical
Conditions: coated on catheters, EO sterilized, stored at room temperature up to 9 months
Description: Composition (lot K-132, Table 9.1) comprising ASP-1 peptide (SEQ ID NO: 17 in Table A), custom synthesized hydrophilic medical grade polyurethane (PU 077), polyoxyl 15 hydroxystearate (PEG-15-HS) and citric acid monohydrate (CAxH2O) was prepared by dissolving components in MEK/ethanol solvent and dip coated on 7 Fr triple lumen catheters.
The obtained ASP-1 coated catheters were sterilized by ethylene oxide (EO) gas, vacuum dried and pouched in aluminum foil bags supplied with a desiccant pouch. Peptide purity and recovery from coatings before EO sterilization and after EO sterilization and storage was measured by HPLC after full extraction from catheters.

RRWVRRVRRWVRRVVRVVRRWVRR (Antimicrobial peptide) [ASP-1]
stability of ASP-1 peptide in catheter coating: good stability
